From patent publication US9096835B2, “DNA polymerase” (Medical Research Council, priority 2003, dated 2015)

Tests used:
Assay type in all cases: biochemical
[1] = tested on: template containing 5-Nitroindole; assay: Primer extension opposite 5-nitroindole; conditions: clones from five rounds of selection
Experimental: 50 pmol of ^32P-labelled primer and 100 pmol of template in a volume of 44 μl were annealed in 1× Taq buffer. 4D11 or 5D4 polymerase as cell lysate (6 μl) was added and reactions were incubated at 50° C. for 15 minutes followed by addition of one dNTP (1 μl in total volume of 50 μl, final dNTP concentration 40 μM). 8 μl samples were taken at various time points and added to 8 μl stop solution (7M urea, 100 mM EDTA containing xylene cyanol F). At the end of the time course the remaining 3 dNTPs were added (final concentration each dNTP 40 μM) and reactions incubated at 50° C. for a further 30 minutes. Reaction samples were electrophoretically separated using 20% polyacrylamide gels at 25 W for 4 hours. The resultant gels were dried and scanned using a phosphorimager (Molecular Dynamics). Data was processed using the program ImageQuant (Molecular Dynamics).

four mismatch primers = assay: PCR screen of clones with four mismatch primers; conditions: 292 base pair product, 50 cycles of PCR
Experimental: The resultant clones from both CSR and CST were screened and ranked by PCR assay. Briefly, 2 μl of induced cells were added to 20 μl of PCR mix with the relevant 4 mismatch primers. Clones that produced a band were then subjected to further analysis and their activity on single, double and quadruple mismatch primers (single mismatch primers: 5′-CAGGAAACAGCTATGACAAAAATCTAGATAACGAGGGA-3′ (SEQ ID NO: 48) and 5′-GTAAAACGACGGCCAGTACCACCGAACTGCGGGTGACGCCAAGCC 3′ (SEQ ID NO: 49); double mismatch primers: CAGGAAACAGCTATGACTCGACAAAAATCTAGATAACGACC (SEQ ID NO: 50) and GTAAAACGACGGCCAGTTTATTAACCACCGAACTGC (SEQ ID NO: 51); four mismatch primers above.) was investigated. Polymerases that could extend all of these mismatches were found, though many polymerases could do only one of the mismatches and […].
The best first and second round clones were shuffled as described above and subjected to another round of CSR. The same two sets of mismatch primers with four mismatches at their 3′ end were used in the emulsion as two separate sources of selective pressure. This was then dealt with as above and the resultant clones were screened and ranked by PCR assay (as above). Once again, polymerases that could extend all of these mismatches were found. In particular, clones 3B5.

[2] = tested on: template containing an abasic site; assay: Translesion replication assay (primer extension), abasic site; conditions: gel-extension assay, 60° C.
Experimental: Template primers 22 (undamaged) or 23 (containing a synthetic abasic site) were synthesized by Lofstrand Laboratories (Gaithersburg, Md.). Template primer 24 (containing a single cis-syn thymine dimer), was synthesized as described (34). Primer 25 was ^32P-labeled and annealed to one of the three templates 22, 23, 24 (at a primer template ratio of molar 1:1.5) and extended in 40 mM Tris.HCl at pH 8.0, 5 mM MgCl2, 100 μM of each dNTP, 10 mM DTT, 250 μg/ml BSA, 2.5% glycerol, 10 nM primer-template DNA and 0.1 Unit of polymerase at 60° C. for various times.
Primer extension assays were essentially as described in (Ghadessy et al., 2004). Briefly, undamaged oligonucleotides and a 51mer containing a synthetic abasic site were synthesized by Lofstrand Laboratories (Gaithersburg, Md.) using standard techniques and were gel purified prior to use. A 20mer primer (LES—20 P) with the sequence 5′-[…]-3′ (SEQ ID NO: 99) was 5′-labeled with [^32P]ATP (5000 Ci/mmole; 1 Ci=37 GBq) (Pharmacia) using T4 polynucleotide kinase (Invitrogen, Carlsbad Calif.). Radiolabeled primer-template DNAs were prepared by annealing the 5′[^32P] labeled 20mer primer to one of the two following 51mer templates (at a primer template ratio of molar 1:1.5). 1) undamaged DNA (UNDT51T); 5′-AGCTACCATGCCTGCACGAATTCGGCATCCGTCGCGACCACGGTCGCAGCG-3′ (SEQ ID NO: 100); 2) an oligo (LABA51T) containing a synthetic abasic site (indicated as an X in bold font); 5′-AGCTACCATGCCTGCACGACA XCG GCATCCGTCGCGACCACGGTCGCAGCG-3′ (SEQ ID NO: 101). Standard replication reactions of 10 contained 40 mM Tris.HCl at pH 8.0, 5 mM MgCl2, 100 μM of each ultrapure dNTP (Amersham Pharmacia Biotech, NJ), 10 mM DTT, 250 μg/ml BSA, 2.5% glycerol, 10 nM 5′[32P] primer-template DNA and 0.1 Unit of polymerase. After incubation at 60° C. for various times reactions were terminated by the addition of 10 μl of 95% formamide/10 mM EDTA and the samples heated to 100° C. for 5 min. Reaction mixtures (5 μl) were subjected to 20% polyacrylamide/7 M Urea gel electrophoresis and replication products visualized by PhosphorImager analysis.

[3] = tested on: primers with an abasic site seven bases from their 3′ end; assay: Abasic site bypass in PCR; conditions: 176 bp product, 20 cycles of PCR
Experimental: FIG. 10. A list of polymerases selected to extend four mismatches were assayed for their ability to extend abasic sites in PCR. Primers with an abasic site seven bases from their 3′ end were designed. Such primers will prevent exponential amplification of the target sequence, restricting it to […] amplification, unless the abasic site is bypassed. […] (A) Screen which identified clone A10. (B) A further 4 polymerases that display good abasic site bypass. Lane M: markers, Hae III digest of Φ X174.
A list of polymerases selected to extend four mismatches were assayed for their ability to extend abasic sites in PCR (FIG. 10).

Molecule	ability to replicate 5NI [1]	extension of primers containing four mismatches in PCR (four mismatch primers)	extension of primers containing four mismatches in PCR (four mismatch primers; listed as C12)	abasic site bypass in primer extension [2]	amplification product in PCR with abasic site primers [3]
5D4: round 5 clone selected for replication of 5NI; SEQ ID NO: 109 (protein, Mutant Taq polymerase) MAMLPLFEPKGRVLLVDGHHLAYRTFFALKGLTTSRGEPVQAVYGFAKSLLKALKEDGYKAIFVVFDAKAPSFRHEAHEAYKAGRAPSPEDFPRQLALIKELVDLLGFTRLEVQGYEADDVLATLAKKAEKEGYEVRILTADRDLYQLVSDRVAVLHPEGHLITPEWLWEKYGLRPEQWVDFRALVGDPSDNLPGVKGIGEKTALKLLKEWGSLENLLKNLDRLKPAIREKILAHMDDLKLSWDLAKVRTDLPLEVDFAKRRESDRERLRAFLERLEFGSLLHEFGLLESPKALEEAPWPPPVGAFVGFVLSRKEPMWADLLALAAARGGRVHRAPEPYKALRDLKEARGLLAKDLSVLALREGLGLPPGDDPMLLAYLLDPSNTTPEVVARRYGGEWTEEAGERAALSERLFANLWGRLEGEGRLLWLYRGVERPLSAVLAHMEATGVRLDVAYLRALSLEVAEEIARLEAEVFRLAGHPFNLNSRDQLERVLFDELGLPAIGKTEKTGKRSTSAAVLEALREAHPIVEKILQYRELTKLKSTYIDPLPDLIHPRTGRLHTRFNQTATATGRLSSSDPNLQNIPVRTPLGQRIRRAFIAEGGWLLVVLDYSQMELRVLAHLSGDENLIRVFQEGRDIHTETASWMFGVPREAVDPLMRRAAKTINFGVLYGMSAHRLSQELAIPYEEAQAFIERYFQSFPKVRAWIEKTLEEGRKRGYVETLFGRRRYVPDLNARVKSVREAAERMAFNMPVQGTAADLTKLAMVKLFPRLEETGARMLLQVHDELVLEAPKERAEAVARLAKEVMEGVYPLAVPLEVEVGIGEDWLSAKG	greatly increased ability to replicate 5NI				
4D11: round 4 clone selected for replication of 5NI; SEQ ID NO: 107 (protein, Mutant Taq polymerase) MAMLPLFEPKGRVLLVDGHHLAYRTFFALKGLTTSRGEPVQAVYGFAKSLLKALKEDGYKAVFVVFDAKAPSFRHEAYEAYKAGRAPTPEDFPRQLALIKELVDLLGFTRLEVQGYEADDVLATLAKKAEKEGYEVRILTADRDLYQLVSDRVAVLHPEGHLITPEWLWEKYGLRPEQWVDFRALVGDPSDNLPGIKGIGEKTALKLLKEWGSLENLLKNLDRVKPENVREKIKAHLEDLRLSLELSRVRTDLPLEVDFAKRREPDRERLRAFLERLEFGSLLHEFGLLESPKALEEAPWPPPEGAFVGFVLSRKEPMWADLLALAAAKGGRVHRAPEPYKALRDLKEARGLLAKDLSVLALREGLGLPPGDDPMLLAYLLDPSNTTPEGVARRYGGEWTEEAGERAALSERLFANLWGRLEGEERLLWLYREVERPLSAVLAHMEATGVRLDVAYLRALSLEVAEEIARLEAEVFRLAGHPFNLNSRDQLERVLFDELGLPAIGKTEKTGKRSTSAAVLEALREAHPIVEKILQYRELTKLKSTYIDPLPDLIHPRTGRLHTRFNQTATATGRLSSSDPNLQNIPVRTPLGQRIRRAFIAEGGWLLVVLDYSQMELRVLAHLSGDENLIRVFQEGRDIHTETASWMFGVPREAVDPLMRRAAKTINFGVLYGMSAHRLSQELAIPYEEAQAFIERYFQSFPKVRAWIEKTLEEGRRRGYVETLFGRRRYVPDLEARVKSVREAAERMAFNMPVQGTAADLMKLAMVKLFPRLEETGARMLLQVHDELVLEAPKERAEAVARLAKEVMEGVYPLAVPLEVEVGIGEDWLSAKE	greatly increased ability to replicate 5NI				
3C12: third round clone, four mismatch extension; SEQ ID NO: 96 (protein, Mutant Taq polymerase) MAMLPLFEPKGRVLLVDGHHLAYRTFFALKGPTTSRGEPVQVVYGFAKSLLKALKEDGYKAVFVVFDAKAPSFRHKAYEAYRAGRAPTPEDFPRQLALIKELVDLLGFTRLEVPGYEADDVLATLAKKAEKEGYEVRILTADRGLYQLVSDRVAVLHPEGHLITPEWLWEKYGLRPEQWVDFRALVGDPSDNLPGVKGIGEKTALKLLKEWGSLENLLKNLDRVKPENVREKIKAHLEDLRLSLELSRVRTDLPLEVDLAQGREPDREGLRAFLERLEFGSLLHEFGLLESPKALEEAPWPPPEGAFVGFVLSRKEPMWADLLALAAARGGRVHRAPEPYKALRDLKEARGLLAKDLSVLALREGLGLPPGDDPMLLAYLLDPSNTAPEGVARRYGGEWTEEAGERAALSERLFANLWGRLEGEERLLWLYREVDRPLSAVLAHMEATGVRLDVACLQALSLELAEEIRRLEEEVFRLAGHPFNLNSRDQLERVLFDELGLPAIGKTEKTGKRSTSAAILEALREAHPIVEKILQYRELTKLKSTYIDPLPDLIHPRTGRLHTRFNQTATATGRLSSSGPNLQNIPVRTPLGQRIRRAFVAEEGWLLVVLDYSQIELRVLAHLSGDENLTRVFLEGRDIHTETASWMFGVPREAVDPLMRRAAKTINFGVLYGMSAHRLSQELAIPYEEAQAFIERYFQSFPKVRAWIEKTLEEGRKRGYVETLFGRRRYVPDLNARVKSVREAAERMAFNMPVQGTAADLMKLAMVKLFPRLREMGARMLLQVHDELLLEAPQARAEEVAALAKEAMEKAYPLAVPLEVKVGIGEDWLSAKE		able to extend primers containing four mismatches	can also extend four mismatched primers in PCR	improved abasic site activity	produced an amplification product
